The assay deals with recombinant influenza HA3-protein (from H3N2, Wyoming, March 2003, Sino Biological Inc.) (influenza H3N2, Wyoming, March 2003). The experiment in a line: SPR imaging (IBIS MX96), antibody captured on anti-human-IgG chip, HA3 injected at 1 µg/ml, global 1:1 fit.

One may read the Kd as the equilibrium constant for the complex coming apart. In general, koff refers to a measure of how fast the partners let go of each other. By kon is commonly meant the second-order rate constant of association.

B1: AT10-004 mutant B (antibody, V domains shown)
VH: RASQSVSRYLA
VL: RASQSVSRYLA
Take B1: the Kd was 0.05 nM, the koff was 1e-06 s⁻¹ and the kon is 19000 M⁻¹ s⁻¹.

B2: AT10-004 mutant C (antibody, V domains shown)
VH: RASQSVSRFLA
VL: RASQSVSRFLA
With B2, the Kd amounted to 0.06 nM, the koff came out at 1e-06 s⁻¹ and the kon is 17000 M⁻¹ s⁻¹.

These data come from US20130331552A1.
